These results are taken from the supplement of paper PMC10201428.

The chains are these.
B1: library; a variant is named by its letters at N, in order (parent)
chain: AATGTTGTTGATGCAACCATAAAGTGATATTTAATAATTATTTATAATCAGCAACTTAACCACAAAACAACCATATATTGATATNTCACAAAACAACCATAANTTGATATTTTTGTGAATCGAGTATTTCAGCAAAACTACTGCAGTAAGAA

± gives the standard deviation of the averaged measurements.

Variants of B1 are the subject of data set [1]. Put plainly: relative integration efficiency (T-LR orientation) vs wild-type transposon end (log2 (normalized fold change)); transposon end mutated: left end; higher = more efficient transposition. The settings on record: with VchCAST RNA-guided transposition machinery (E. coli BL21(DE3) host, lacZ target). The method, boiled down:
(§1)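 Each barcoded pool, 1549 left-end or 1849 right-end transposon variants in a pUC57 mini-transposon donor, went into E. coli BL21(DE3) with a T7-driven effector plasmid (CRISPR array, tniQ-cas8-cas7-cas6, tnsA-tnsB-tnsC). Plates contained 0.1 mM IPTG and were held at 37°C for 18 h. Input plasmids and genomic integration junctions were PCR-amplified and read by Illumina sequencing, with two biological output replicates and four reference barcodes. Relative integration efficiency is the fold change of output over input barcode abundance, normalised to the reference barcodes and log-transformed.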

In data set [2] the parent is B1. Put plainly: relative integration efficiency (T-RL orientation) vs wild-type transposon end (log2 (normalized fold change)); transposon end mutated: left end; higher = more efficient transposition. Conditions: with VchCAST RNA-guided transposition machinery (E. coli BL21(DE3) host, lacZ target). The method, boiled down: as §1

Turning to CG A40G, the “relative integration efficiency (log2)” value is 0.0123 ± 0.78 in data set [1] and -0.273 ± 0.0094 in data set [2].

Regarding CG A40C, the “relative integration efficiency (log2)” value was -0.351 ± 0.61 in data set [1] and -0.0674 ± 0.033 in data set [2].

For CG A40T, the “relative integration efficiency (log2)” value in data set [1] was 0.577 ± 0.12; in data set [2] it was 0.279 ± 0.021.

Turning to CG A36G A65G A66C, the “relative integration efficiency (log2)” value was -0.205 ± 0.26 in data set [1] and -0.491 ± 0.18 in data set [2].

In the case of CG A34C T35C A36G T38C A40G T42C A44G T45C A46C A62G A65G A66C, the “relative integration efficiency (log2)” value was -1.11 ± 0.2 in data set [1] and -1.33 ± 0.56 in data set [2].

For CC A22T A23T T76A A77T A102T, the “relative integration efficiency (log2)” value was -0.252 ± 0.23 in data set [1] and -0.313 ± 0.27 in data set [2].

For CG A21T A22T, the “relative integration efficiency (log2)” value in data set [1] is -0.163 ± 0.75; in data set [2] it was -0.172 ± 0.32.

Consider CG A37T T38A, for which the “relative integration efficiency (log2)” value was determined as 0.156 ± 0.25 in data set [1] and 0.191 ± 0.1 in data set [2].

Turning to CG A44C T45G, the “relative integration efficiency (log2)” value in data set [1] is 0.0152 ± 0.65; in data set [2] it was -0.0735 ± 0.14.

Regarding GG, the “relative integration efficiency (log2)” value in data set [1] is -0.397 ± 0.89; in data set [2], -0.0172 ± 0.13.

Turning to CG A33T A34T, the “relative integration efficiency (log2)” value in data set [1] is 0.663 ± 0.25; in data set [2], 0.125 ± 0.061.

Regarding CG A33C A34C T35G A36C, the entries for the “relative integration efficiency (log2)” value in data set [1] and in data set [2] were -0.094 ± 0.018 and -0.077 ± 0.049, respectively.

Turning to CG A22T T76A A102T, the figures for the “relative integration efficiency (log2)” value in data set [1] and in data set [2] were 0.271 ± 0.39 and 0.269 ± 0.11, respectively.

With CG A22T G24T T31C A33C, the “relative integration efficiency (log2)” value was -0.141 ± 0.18 in data set [1] and -0.0346 ± 0.14 in data set [2].

CG A36C A37C T38G T39G: the “relative integration efficiency (log2)” value in data set [1] is -0.25 ± 0.0025; in data set [2], -0.22 ± 0.14.

As for TA T76A T78G C87A A96C T110A T113A, the entries for the “relative integration efficiency (log2)” value in data set [1] and in data set [2] were -0.0777 ± 0.55 and -0.0885 ± 0.14, respectively.

For CG A44T T45A A46T A47T, the “relative integration efficiency (log2)” value in data set [1] was 0.462 ± 0.079; in data set [2] it was -0.0681 ± 0.078.

Consider CG A34T T35A A36T A37T, for which the figures for the “relative integration efficiency (log2)” value in data set [1] and in data set [2] were 0.329 ± 0.44 and 0.189 ± 0.094, respectively.

Take TG A16C G24T T30A T76A T78A T84A C87A: the “relative integration efficiency (log2)” value stood at 0.0694 ± 0.32 in data set [1] and 0.372 ± 0.36 in data set [2].

Turning to CG A29C T30G, the entries for the “relative integration efficiency (log2)” value in data set [1] and in data set [2] were -1.28 ± 1.4 and -1.12 ± 0.53, respectively.

As to CG A11G, the “relative integration efficiency (log2)” value in data set [1] was -0.67 ± 0.84; in data set [2] it was 0.0387 ± 0.29.

For the variant CG A11T, the “relative integration efficiency (log2)” value was -0.735 ± 0.14 in data set [1] and -0.00672 ± 0.034 in data set [2].

Turning to CG A11C, the “relative integration efficiency (log2)” value in data set [1] was 0.113 ± 0.091; in data set [2], -0.401 ± 0.34.

As to CG A34C T35C A36G T38C A40G T42C A44G A62G A65G A66C, the “relative integration efficiency (log2)” value in data set [1] was -0.6091 ± 0.0048; in data set [2] it was -0.635 ± 0.3.

In the case of CG A34C T35G T39C T41A T45A G51T C52A A53G A54G C60T A62G C63A, the “relative integration efficiency (log2)” value in data set [1] was 0.531 ± 0.51; in data set [2] it was -0.0678 ± 0.088.

For CG A36T A37T, the “relative integration efficiency (log2)” value in data set [1] was found to be 0.375 ± 0.21; in data set [2], 0.0996 ± 0.091.

Regarding CG A46T A47T T48A C49G, the “relative integration efficiency (log2)” value in data set [1] is 0.192 ± 0.37; in data set [2], 0.00752 ± 0.28.

Take TG A16C G24T T32G A33C T76A A77G C87T: the “relative integration efficiency (log2)” value in data set [1] was -0.184 ± 0.15; in data set [2], -0.603 ± 0.47.

Take CG A15T A16T C17G C18G: the “relative integration efficiency (log2)” value in data set [1] was -0.912 ± 0.078; in data set [2], -0.824 ± 0.58.

Take CG A15C A69C A95C: the “relative integration efficiency (log2)” value in data set [1] is -0.511 ± 0.34; in data set [2], -0.731 ± 0.34.

On to CG A46G A47G C49G A50T G51C C52T A53C A54G A58C C60G, for which the “relative integration efficiency (log2)” value in data set [1] was -3.701 ± 0.037; in data set [2], -3.69 ± 1.2.

Turning to CG A23C G24T T25G G26T, the “relative integration efficiency (log2)” value in data set [1] is -1.99 ± 0.63; in data set [2], -1.12 ± 0.49.

Turning to CG A21C A22C, the results for the “relative integration efficiency (log2)” value in data set [1] and in data set [2] were -1.77 ± 0.64 and -1.82 ± 0.43, respectively.

As for CG A2C, the “relative integration efficiency (log2)” value in data set [1] is 0.61035 ± 0.00046; in data set [2], -0.0562 ± 0.037.

For the variant CG A2T, the “relative integration efficiency (log2)” value in data set [1] is 0.355 ± 0.34; in data set [2] it was -0.141 ± 0.054.

Consider CG A2G, for which the “relative integration efficiency (log2)” value in data set [1] is 0.28 ± 0.065; in data set [2], 0.239 ± 0.039.

Take CG A11C T12G: the “relative integration efficiency (log2)” value was -1.34 ± 0.53 in data set [1] and -0.436 ± 0.26 in data set [2].

CG A34C T35C A36G T38C A40G T42C A44G T45C A46C A53C A62G A65G A66C: the “relative integration efficiency (log2)” value is -1.83 ± 0.73 in data set [1] and -1.68 ± 0.71 in data set [2].

On to TA T76A A77G C87T T104G T113A, for which the “relative integration efficiency (log2)” value is 0.151 ± 0.33 in data set [1] and -0.605 ± 0.42 in data set [2].

CG A44T T45A: the entries for the “relative integration efficiency (log2)” value in data set [1] and in data set [2] were 0.734 ± 0.13 and 0.214 ± 0.11, respectively.

For CG A21C A22C A23C G24T, the “relative integration efficiency (log2)” value was -0.914 ± 0.79 in data set [1] and -1.03 ± 0.74 in data set [2].

As for TG A23G G24T A33T T76A T78A T84A C87A, the “relative integration efficiency (log2)” value in data set [1] turned out to be 0.325 ± 0.22; in data set [2], 0.0428 ± 0.34.

Regarding CG A33T C87G T113A, the results for the “relative integration efficiency (log2)” value in data set [1] and in data set [2] were 0.02216 ± 0.00015 and -0.157 ± 0.2, respectively.

With CG A46C A47C, the figures for the “relative integration efficiency (log2)” value in data set [1] and in data set [2] were -0.43 ± 0.42 and -0.349 ± 0.19, respectively.

TA T76A T78G C87A T104G T113A: the “relative integration efficiency (log2)” value is -0.127 ± 0.0086 in data set [1] and -0.3 ± 0.22 in data set [2].

On to CG A16T C17G, for which the “relative integration efficiency (log2)” value in data set [1] was -0.34 ± 0.47; in data set [2], -0.0955 ± 0.095.

CG A2C T3G: the “relative integration efficiency (log2)” value in data set [1] was 0.286 ± 0.049; in data set [2], -0.0688 ± 0.0099.

Take CG A15T A69T A95T: the “relative integration efficiency (log2)” value in data set [1] is -1.55 ± 0.76; in data set [2], -1.31 ± 0.47.

CG A15T A16T: the “relative integration efficiency (log2)” value in data set [1] is -0.556 ± 0.6; in data set [2] it was -0.219 ± 0.36.

CG A2C T3G G4T T5G: the “relative integration efficiency (log2)” value in data set [1] was -0.014 ± 0.12; in data set [2], -0.514 ± 0.095.

With CA G24A T30A T104G T113A, the “relative integration efficiency (log2)” value is -0.317 ± 0.27 in data set [1] and -0.387 ± 0.13 in data set [2].

For CG A34T A36G A37T T38G T39A A40G T41C T42G T43G T48C C49A, the results for the “relative integration efficiency (log2)” value in data set [1] and in data set [2] were -2.77 ± 0.75 and -2.86 ± 0.81, respectively.

For the variant CG A16T C17G C18G A19T, the “relative integration efficiency (log2)” value in data set [1] is -1.18 ± 1.3; in data set [2] it was -1.61 ± 0.74.

Take TA T76A T78G C87A T104A T110A T113A: the “relative integration efficiency (log2)” value in data set [1] is 0.215 ± 0.49; in data set [2] it was -0.291 ± 0.22.

As to CG A37T, the “relative integration efficiency (log2)” value in data set [1] is 0.0565 ± 0.29; in data set [2] it was -0.0666 ± 0.052.

As to CG A37C, the “relative integration efficiency (log2)” value in data set [1] is 0.0561 ± 0.13; in data set [2], -0.222 ± 0.0095.

For the variant CG A37G, the “relative integration efficiency (log2)” value stood at 0.434 ± 0.033 in data set [1] and 0.146 ± 0.027 in data set [2].
